From patent US7482146B1, “Phenylethanolamine-N-methyltransferase sequence variants” (Mayo Foundation for Medical Education and Research, priority 2003, dated 2009) come the findings set out here.

For data set [1], the system named is PNMT. In words: PNMT enzyme activity assay of recombinant allozymes (14C-SAM methylation of octopamine). The following applies: recombinant allozyme in COS-1 cell homogenate; 65.9 μM octopamine, 24.22 μM 14C-SAM; corrected for transfection efficiency. The data set is classed as biochemical, human. From the text: Recombinant PNMT Expression Constructs and Allozyme Expression: PNMT cDNA sequences for the three non-synonymous cSNPs that were observed during the resequencing experiments were created using the QuickChange Site-Directed Mutagenesis kit (Stratagene, La Jolla, Calif.), using the wild type PNMT cDNA open reading frame (ORF) in the pUni/V5-His-TOPO (pUni) vector (Invitrogen) as template. Specifically, the full-length wild type ORF (GenBank accession number J03727) was amplified using human brain Marathon-Ready cDNA (Clontech) as template. The resultant PNMT cDNA was subcloned into pUni, a vector that is only 2.3 kilobases in length, so it is well suited for performing “circular PCR” during site-directed mutagenesis. […]
PNMT Enzyme Activity: PNMT activity was measured using a method based on that of Molnicoff et al. (1971) J. Pharmacol. Exp. Ther. 178(3):425-431. […] “Blank” samples included the same quantity of COS-115,000×g supernatant from cells that were transfected with “empty” pCR3.1 expression vector, making it possible to correct for endogenous activity. Reaction mixtures were incubated at 37° C. for 30 minutes, and reactions were stopped with 500 μl Borate Buffer (pH 10). ^14C-N-methyl-octopamine was extracted into toluene containing 20% isoamyl alcohol, and radioactivity of the extracted ^14C-N-methyl-octopamine was measured in a liquid scintillation counter. […]

Data set [2] deals with PNMT. In words: Substrate kinetics: apparent Km values of recombinant PNMT allozymes for octopamine and SAM. The data set is classed as biochemical, human. The following applies: recombinant allozyme from COS-1 cells. As for the experimental part:
Expression constructs for the wild type and variant PNMT sequences were transfected into COS-1 cells using the TransFast™ reagent (Promega), with a 1:1 charge ratio. pSV-β-Galactosidase (Promega) was co-transfected as an internal control to make it possible to correct for transfection efficiency. The COS-1 cells were harvested after 48 hours and were homogenized with a Polytron homogenizer (Brinkmann Instruments, Westbury, N.Y.) in 25 mM potassium phosphate buffer, pH 7.8 that contained 1 mM dithiothreitol (DTT) and 1 mM EDTA. Cell homogenates were centrifuged at 15,000×g for 15 minutes, and the resultant supernatant preparations were used for enzyme assays and substrate kinetic studies.
Estimating Apparent Km Values: To estimate apparent Km values of PNMT for the octopamine substrate, a series of octopamine and SAM concentrations were tested with the recombinant allozymes. Blanks for each substrate concentration were included by assaying COS-1 cell cytosol after transfection with empty […] vector. […] Apparent Km values were calculated using the method of Wilkinson with a computer program written by Cleland. Wilkinson supra; and Cleland supra.

Where two headings read alike, the source gives them in different places.

B1: WT: recombinant wild type (reference) human PNMT polypeptide, SEQ ID NO:8, expressed in COS-1 cells (protein)
chain: MSGADRSPNAGAAPDSAPGQAAVASAYQRFEPRAYLRNNYAPPRGDLCNPNGVGPWKLRCLAQTFATGEVSGRTLIDIGSGPTVYQLLSACSHFEDITMTDFLEVNRQELGRWLQEEPGAFNWSMYSQHACLIEGKGECWQDKERQLRARVKRVLPIDVHQPQPLGAGSPAPLPADALVSAFCLEAVSPDLASFQRALDHITTLLRPGGHLLLIGALEESWYLAGEARLTVVPVSEEEVREALVRSGYKVRDLRTYIMPAHLQTGVDDVKGVFFAWAQKVGL
modifications: Homo sapien
Usually Km stands for the concentration of substrate that gives half-maximal velocity. With B1, in the data set with PNMT [1], the “% WT Enzyme activity” value is given as 100 % WT. Also, the Michaelis constant (Km) in the data set on PNMT [2] (substrate SAM, read-out: Apparent Km (SAM)) worked out at 6.6 µM; in the data set with PNMT [2] (substrate octopamine, listed as WT PNMT protein, read-out: Apparent Km (octopamine)), 13.6 µM; in the data set with PNMT [2] (substrate octopamine, read-out: Apparent Km (octopamine)), 23.5 ± 3.1 µM.
